Source: patent publication US20150299305A1 (Alexion, published 2015)
Residue numbers refer to the chain shown, from its start. Names may count otherwise.

What was measured:
[1] = target: T1, human complement component C5 (human, UniProt P01031 19-673; P01031 678-1676); assay: SPR, pH 6.0
T1 construct: mature; Native purified protein; also called human C5; hC5

[2] = target: T1, human complement component C5; assay: SPR
[3] = target: T1, human complement component C5; assay: SPR, pH 7.4
[4] = target: T2, mouse C5 (mouse, UniProt P06684 19-674; P06684 679-1680); assay: SPR, anti-Fc capture, pH 7.4; pH 7.4
T2 construct: also called purified mouse C5
T2 sequence (P06684 19-674 limits assumed, chain 1 of 2): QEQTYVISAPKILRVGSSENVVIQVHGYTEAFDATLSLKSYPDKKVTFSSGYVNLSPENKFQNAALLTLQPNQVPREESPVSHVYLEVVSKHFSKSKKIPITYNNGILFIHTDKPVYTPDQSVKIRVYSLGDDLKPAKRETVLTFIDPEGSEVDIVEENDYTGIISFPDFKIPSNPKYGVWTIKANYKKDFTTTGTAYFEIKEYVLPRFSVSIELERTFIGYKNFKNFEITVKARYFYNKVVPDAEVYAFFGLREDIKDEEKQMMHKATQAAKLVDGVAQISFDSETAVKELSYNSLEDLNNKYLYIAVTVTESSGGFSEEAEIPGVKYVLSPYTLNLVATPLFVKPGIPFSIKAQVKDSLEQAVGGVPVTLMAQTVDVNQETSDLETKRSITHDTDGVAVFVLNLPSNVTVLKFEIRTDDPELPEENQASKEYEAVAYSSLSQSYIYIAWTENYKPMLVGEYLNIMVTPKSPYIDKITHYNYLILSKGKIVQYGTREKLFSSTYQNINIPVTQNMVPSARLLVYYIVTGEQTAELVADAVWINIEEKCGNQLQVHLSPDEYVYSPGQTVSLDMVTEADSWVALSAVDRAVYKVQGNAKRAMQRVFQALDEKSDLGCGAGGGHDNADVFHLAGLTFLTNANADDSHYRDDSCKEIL
T2 sequence (P06684 679-1680 limits assumed, chain 2 of 2): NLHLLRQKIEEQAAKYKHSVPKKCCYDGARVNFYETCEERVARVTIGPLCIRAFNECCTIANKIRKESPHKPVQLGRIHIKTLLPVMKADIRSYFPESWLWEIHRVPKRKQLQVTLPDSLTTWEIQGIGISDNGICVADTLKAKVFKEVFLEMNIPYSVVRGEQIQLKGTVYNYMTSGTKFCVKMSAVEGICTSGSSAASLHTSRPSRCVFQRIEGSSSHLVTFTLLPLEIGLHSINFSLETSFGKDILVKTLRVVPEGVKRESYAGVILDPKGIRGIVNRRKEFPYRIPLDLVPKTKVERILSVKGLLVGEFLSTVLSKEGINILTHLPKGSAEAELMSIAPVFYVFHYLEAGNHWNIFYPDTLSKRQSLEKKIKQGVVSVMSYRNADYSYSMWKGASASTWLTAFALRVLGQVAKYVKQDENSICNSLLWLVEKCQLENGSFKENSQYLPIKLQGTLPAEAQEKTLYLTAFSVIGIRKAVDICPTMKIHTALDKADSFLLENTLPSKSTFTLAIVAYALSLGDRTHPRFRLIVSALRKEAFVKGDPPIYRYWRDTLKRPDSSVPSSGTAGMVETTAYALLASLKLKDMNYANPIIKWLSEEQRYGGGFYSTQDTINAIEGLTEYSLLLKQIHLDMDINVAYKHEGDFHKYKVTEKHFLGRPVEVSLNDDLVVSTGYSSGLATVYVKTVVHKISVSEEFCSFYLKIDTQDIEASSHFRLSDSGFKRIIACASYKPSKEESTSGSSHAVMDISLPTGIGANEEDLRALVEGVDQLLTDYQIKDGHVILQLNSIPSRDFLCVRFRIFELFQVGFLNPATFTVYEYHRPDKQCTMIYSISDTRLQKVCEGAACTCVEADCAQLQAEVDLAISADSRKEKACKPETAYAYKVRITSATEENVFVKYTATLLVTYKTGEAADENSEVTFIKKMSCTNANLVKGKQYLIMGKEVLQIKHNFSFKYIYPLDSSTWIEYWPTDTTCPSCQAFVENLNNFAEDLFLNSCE
Experimental: Briefly, anti-human Fc (KPL, catalogue number: 01-10-20) diluted to 0.1 mg/mL in 10 mM sodium acetate pH 5.0, was immobilized on two flow cells of a CM5 chip for 8 minutes by amine coupling. The antibodies were diluted to 0.25 μg/mL in running buffer (HBS-EP; 0.01 M HEPES pH 7.4, 0.15 M NaCl, 3 mM EDTA, 0.005% v/v Surfactant P20; GE Life Sciences, catalogue number: BR1001-88). The diluted antibody was then injected on one flow cell followed by an injection of 6 nM mouse C5 on both cells. The second flow cell was used as a reference surface. The binding was evaluated at pH 7.4 and pH 6.0. The surface was regenerated each time with 20 mM HCl, 0.01% P20. The data was processed with a 1:1 Langmuir model using BIAevaluation 4.1 software with ‘double referencing’.

[5] = target: complement component C1q (UniProt P02745 23-245; P02746 28-253; P02747 29-245); assay: biolayer interferometry
Chain of complement component C1q (P02745 23-245, chain 1 of 3): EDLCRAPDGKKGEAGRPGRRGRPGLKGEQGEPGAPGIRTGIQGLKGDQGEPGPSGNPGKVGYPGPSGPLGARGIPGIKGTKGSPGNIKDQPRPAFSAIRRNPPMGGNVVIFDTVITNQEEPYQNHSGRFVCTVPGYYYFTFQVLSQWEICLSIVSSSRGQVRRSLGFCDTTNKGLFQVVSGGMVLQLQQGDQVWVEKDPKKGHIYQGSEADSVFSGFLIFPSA
Chain of complement component C1q (P02746 28-253, chain 2 of 3): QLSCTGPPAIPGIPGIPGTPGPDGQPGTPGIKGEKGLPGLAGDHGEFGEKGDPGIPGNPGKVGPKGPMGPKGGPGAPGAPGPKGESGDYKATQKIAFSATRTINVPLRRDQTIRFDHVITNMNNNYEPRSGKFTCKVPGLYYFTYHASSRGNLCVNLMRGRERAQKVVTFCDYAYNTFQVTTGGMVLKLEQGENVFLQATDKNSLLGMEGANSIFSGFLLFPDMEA
Chain of complement component C1q (P02747 29-245, chain 3 of 3): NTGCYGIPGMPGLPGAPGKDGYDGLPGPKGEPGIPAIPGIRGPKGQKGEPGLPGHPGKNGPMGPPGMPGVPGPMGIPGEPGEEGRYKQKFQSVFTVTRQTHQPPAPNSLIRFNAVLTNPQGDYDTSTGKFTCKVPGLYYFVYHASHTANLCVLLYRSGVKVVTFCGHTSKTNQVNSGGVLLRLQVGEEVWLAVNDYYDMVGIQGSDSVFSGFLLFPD

[6] = target: T3, Human FcγRIIa (CD32a) (human, UniProt P12318 36-218, limits assumed); assay: ELISA, multimeric antibody immune complexes on His-tagged FcγRIIa; reference not named (IgG1 control implied)
T3 construct: Bought reagent; not shown: 6x histidine tag
T3 sequence (looked up): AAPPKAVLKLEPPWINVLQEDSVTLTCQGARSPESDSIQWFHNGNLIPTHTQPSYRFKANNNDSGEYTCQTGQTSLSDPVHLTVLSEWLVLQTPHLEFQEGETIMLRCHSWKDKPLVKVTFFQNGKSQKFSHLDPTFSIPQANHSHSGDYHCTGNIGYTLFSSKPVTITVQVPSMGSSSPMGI

[7] = target: T4, human neonatal Fc receptor (FcRn) (human, UniProt P55899 24-297; P61769 21-119, limits assumed); assay: SPR, F(ab')2 capture, pH 6.0
T4 construct: also called hFcRn; human FcRn
T4 sequence (P55899 24-297 limits assumed, chain 1 of 2): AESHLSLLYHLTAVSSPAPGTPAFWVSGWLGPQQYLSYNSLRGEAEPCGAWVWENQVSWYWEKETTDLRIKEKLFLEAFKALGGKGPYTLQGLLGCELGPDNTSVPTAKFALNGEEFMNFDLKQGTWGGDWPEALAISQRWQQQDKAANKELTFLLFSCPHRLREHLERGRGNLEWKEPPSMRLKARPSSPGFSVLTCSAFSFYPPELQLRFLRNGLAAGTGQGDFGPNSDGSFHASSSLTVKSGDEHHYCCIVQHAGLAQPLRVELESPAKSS
T4 sequence (P61769 21-119 limits assumed, chain 2 of 2): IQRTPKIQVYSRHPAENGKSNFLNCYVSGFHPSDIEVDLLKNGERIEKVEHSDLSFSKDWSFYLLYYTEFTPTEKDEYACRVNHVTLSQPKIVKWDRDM
Text: The data were processed with a 1:1 Langmuir model using BIAevaluation 4.1 software (BIAcore AB, Uppsala, Sweden) with ‘double referencing’.

[8] = target: T5, Human FcγRIIIb (CD16b) (human, UniProt O75015 17-200, limits assumed); assay: SPR, antibody immobilized, monomeric FcγR injected, steady state, pH 7.4; SPR, monomeric FcγR
T5 construct: Bought reagent; not shown: 6x histidine tag
T5 sequence (O75015 17-200 limits assumed): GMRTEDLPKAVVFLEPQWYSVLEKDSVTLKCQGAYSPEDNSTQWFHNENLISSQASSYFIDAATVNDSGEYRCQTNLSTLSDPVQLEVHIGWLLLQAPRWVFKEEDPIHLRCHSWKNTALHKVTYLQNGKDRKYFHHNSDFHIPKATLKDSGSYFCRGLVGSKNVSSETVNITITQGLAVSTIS

[9] = target: T6, Human FcγRIIIa (CD16a) (human, UniProt P08637 17-208, limits assumed); assay: as above
T6 construct: Bought reagent; not shown: 6x histidine tag
T6 sequence (P08637 17-208 limits assumed): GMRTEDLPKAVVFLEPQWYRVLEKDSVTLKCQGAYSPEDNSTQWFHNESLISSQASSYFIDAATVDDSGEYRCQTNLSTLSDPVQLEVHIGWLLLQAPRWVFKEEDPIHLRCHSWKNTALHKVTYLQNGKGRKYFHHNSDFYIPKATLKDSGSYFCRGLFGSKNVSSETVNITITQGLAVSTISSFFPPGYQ

[10] = target: T7, Human FcγRIIb/c (CD32b/c) (human, UniProt P31994 46-217, limits assumed); assay: as above
T7 construct: Bought reagent; not shown: 6x histidine tag
T7 sequence (looked up): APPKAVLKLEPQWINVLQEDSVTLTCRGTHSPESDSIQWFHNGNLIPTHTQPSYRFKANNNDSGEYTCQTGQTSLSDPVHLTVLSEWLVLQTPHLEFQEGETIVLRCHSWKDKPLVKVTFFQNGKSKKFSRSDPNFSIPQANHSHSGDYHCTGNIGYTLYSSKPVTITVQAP

[11] = target: T8, Human FcγRI (CD64) (human, UniProt P12314 16-288, limits assumed); assay: as above
T8 construct: Bought reagent; also called FcγR1; not shown: 6x histidine tag
T8 sequence (P12314 16-288 limits assumed): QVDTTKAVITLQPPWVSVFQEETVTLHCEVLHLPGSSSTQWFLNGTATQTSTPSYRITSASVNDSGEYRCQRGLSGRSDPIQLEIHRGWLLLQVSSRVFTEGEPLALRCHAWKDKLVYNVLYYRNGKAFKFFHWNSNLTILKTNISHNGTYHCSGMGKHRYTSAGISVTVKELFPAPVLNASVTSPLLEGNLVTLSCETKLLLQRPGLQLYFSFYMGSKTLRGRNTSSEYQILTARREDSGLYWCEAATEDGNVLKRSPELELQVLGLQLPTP

[12] = target: T3, Human FcγRIIa (CD32a); assay: SPR, antibody immobilized, monomeric FcγR injected, steady state, pH 7.4
Experimental: (§1) A second flow cell was used as a reference surface. Concentrations of FcγRs diluted in running buffer (HBS-EP, pH 7.4) were injected on both cells. The surface was regenerated each cycle with 20 mM HCl, 0.01% P20. The data was analyzed using a steady state affinity model in BIAevaluation 4.1 software (BIAcore AB, Uppsala, Sweden) with ‘double referencing’.

[13] = target: T9, human hypercalcemia of malignancy peptide, amino acid residues 1-34 (human, UniProt P12272 37-70); assay: immunofluorescent staining of UV-resin spot slides
T9 construct: range 1-34; Negative control material on UV-resin spot slides; also called PTHrP 1-34

[14] = target: T8, Human FcγRI (CD64); assay: SPR, antibody immobilized, single cycle kinetics, pH 7.4; Table 16 cell under the head KD [µM]
Experimental: The antibody was diluted in 10 mM sodium acetate at pH 5.0 and directly immobilized on one flow cell of a CM5 chip by amine coupling. A second flow cell was used as a reference surface. Concentrations of FcγR1 diluted in running buffer (HBS-EP, pH 7.4) were injected on both cells. This assay required no regeneration. The data was analyzed using a titration kinetics 1:1 model in BIAevaluation 4.1 (Biacore AB, Uppsala, Sweden) software with ‘double referencing’.

[15] = target: T5, Human FcγRIIIb (CD16b); assay: SPR, antibody immobilized, monomeric FcγR injected, steady state, pH 7.4
Experimental: as §1

[16] = target: T6, Human FcγRIIIa (CD16a); assay: as above
Experimental: as §1

[17] = target: T7, Human FcγRIIb/c (CD32b/c); assay: as above
Experimental: as §1

B1: EHL004 (antibody, V domains shown)
VH: QVQLVQSGAEVKKPGASVKVSCKASGYIFSNYWIQWVRQAPGQGLEWMGEILPGSGHTEYTENFKDRVTMTRDTSTSTVYMELSSLRSEDTAVYYCARYFFGSSPNWYFDVWGQGTLVTVSS
VL: DIQMTQSPSSLSASVGDRVTITCGASENIYHALNWYQQKPGKAPKLLIYGATNLADGVPSRFSGSGSGTDFTLTISSLQPEDFATYYCQNVLNTPLTFGQGTKVEIK
notes: The VH cell prints only 'S57H'
With B1 the Kd [1] was 0.374 µM, the “ratio of KD at pH 6.0/pH 7.4” value [2] was 2770 and the Kd [3] was 0.000135 µM.

B2: BHL006 (antibody, human IgG2, kappa)
heavy: QVQLQQPGAELVRPGTSVKLSCKASGYTFTSSWMHWVKQRPGQGLEWIGVIDPHDSYTNYNQKFKGKATLTVDTSSSTAYMQLSSLTSEDSAVYYCARGGGSSYNRYFDVWGTGTTVTVSSASTKGPSVFPLAPCSRSTSESTAALGCLVKDYFPEPVTVSWNSGALTSGVHTFPAVLQSSGLYSLSSVVTVPSSNFGTQTYTCNVDHKPSNTKVDKTVERKCCVECPPCPAPPVAGPSVFLFPPKPKDTLMISRTPEVTCVVVDVSQEDPEVQFNWYVDGVEVHNAKTKPREEQFNSTYRVVSVLTVLHQDWLNGKEYKCKVSNKGLPSSIEKTISKAKGQPREPQVYTLPPSQEEMTKNQVSLTCLVKGFYPSDIAVEWESNGQPENNYKTTPPVLDSDGSFFLYSRLTVDKSRWQEGNVFSCSVMHEALHNHYTQKSLSLSLGK
light: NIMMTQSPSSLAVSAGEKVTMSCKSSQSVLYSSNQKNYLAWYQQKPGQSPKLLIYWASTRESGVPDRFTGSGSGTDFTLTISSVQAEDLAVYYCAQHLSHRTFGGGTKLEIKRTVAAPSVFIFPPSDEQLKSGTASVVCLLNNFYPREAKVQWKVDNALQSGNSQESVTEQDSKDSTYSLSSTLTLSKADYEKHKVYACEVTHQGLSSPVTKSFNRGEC
notes: BHL011 with three histidine substitutions in the murine variable regions; also called pH-dependent variant of BHL011
In the case of B2, the Kd [4] is reported as 0.00349 µM, the koff [4] is reported as 0.00102 s⁻¹ and the kon [4] is reported as 293000 M⁻¹ s⁻¹.

B3: BHL009 (antibody, human IgG2, kappa)
heavy: B2 heavy with M428L, N434S
light: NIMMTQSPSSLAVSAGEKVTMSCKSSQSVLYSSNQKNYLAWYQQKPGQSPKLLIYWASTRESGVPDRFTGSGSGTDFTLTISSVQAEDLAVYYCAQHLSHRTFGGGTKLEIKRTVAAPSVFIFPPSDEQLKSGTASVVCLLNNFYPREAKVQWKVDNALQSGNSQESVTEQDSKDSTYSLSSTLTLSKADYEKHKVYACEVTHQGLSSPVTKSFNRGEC
notes: BHL006 with M428L, N434S in the human heavy chain constant region
B3 gave a Kd [4] of 0.00419 µM, a koff [4] of 0.00109 s⁻¹ and a kon [4] of 261000 M⁻¹ s⁻¹.

B4: BNJ441 (antibody, human IgG2, kappa)
heavy: QVQLVQSGAEVKKPGASVKVSCKASGHIFSNYWIQWVRQAPGQGLEWMGEILPGSGHTEYTENFKDRVTMTRDTSTSTVYMELSSLRSEDTAVYYCARYFFGSSPNWYFDVWGQGTLVTVSSASTKGPSVFPLAPCSRSTSESTAALGCLVKDYFPEPVTVSWNSGALTSGVHTFPAVLQSSGLYSLSSVVTVPSSNFGTQTYTCNVDHKPSNTKVDKTVERKCCVECPPCPAPPVAGPSVFLFPPKPKDTLMISRTPEVTCVVVDVSQEDPEVQFNWYVDGVEVHNAKTKPREEQFNSTYRVVSVLTVLHQDWLNGKEYKCKVSNKGLPSSIEKTISKAKGQPREPQVYTLPPSQEEMTKNQVSLTCLVKGFYPSDIAVEWESNGQPENNYKTTPPVLDSDGSFFLYSRLTVDKSRWQEGNVFSCSVLHEALHSHYTQKSLSLSLGK
light: DIQMTQSPSSLSASVGDRVTITCGASENIYGALNWYQQKPGKAPKLLIYGATNLADGVPSRFSGSGSGTDFTLTISSLQPEDFATYYCQNVLNTPLTFGQGTKVEIKRTVAAPSVFIFPPSDEQLKSGTASVVCLLNNFYPREAKVQWKVDNALQSGNSQESVTEQDSKDSTYSLSSTLTLSKADYEKHKVYACEVTHQGLSSPVTKSFNRGEC
notes: IgG2/G4, kappa; also called BNJ441 antibody; BNJ441 engineering batch
With B4 the binding result [5] was “no binding”, the fold weaker association [6] was 4 fold and the “fold increase in affinity compared to eculizumab” value [7] was about 10 fold. For the same binder, the Kd [8] was 3.33 µM, the Kd [9] was 7.23 µM and the Kd [10] was 8.09 µM. The Kd [11] was 3.75 µM and the Kd [12] was 2.31 µM.

B5: BNJ441-FITC (antibody, human IgG2, kappa)
heavy: B4 heavy
light: B4 light
modifications: fluoresceinated (FITC); sites not stated
notes: also called fluoresceinated BNJ441
B5: no binding [13].

B6: h5G1.1-IgG1 (antibody)
heavy: not shown
light: B4 light
notes: IgG1 isotype antibody with the same humanized variable region as eculizumab; light chain identical to that of eculizumab and BNJ441; also called h5G1.1-hG1; IgG1 isotype control
B6 gave a Kd [14] of 0.000123 µM, a Kd [15] of 1.89 µM and a Kd [16] of 0.85 µM. It also gave a Kd [17] of 3.06 µM and a Kd [12] of 0.8 µM.

B7: eculizumab (antibody, human IgG2, kappa)
heavy: B4 heavy with H27Y, H57S, L429M, S435N
light: B4 light
notes: Humanized anti-human C5 antibody, hybrid human IgG2/G4 constant region, human kappa light chain; also called Ec293F
With B7 the binding result [5] was “no binding”, the fold weaker association [6] was 8 fold and the Kd [10] was 9.84 µM. The Kd [12] was 2.58 µM.
